Reference: patent US20250327113A1 (ESPERANCE PHARMACEUTICALS, published 2025)

Target: T1, human LHRH receptor (human, UniProt P30968 1-328)
T1 sequence: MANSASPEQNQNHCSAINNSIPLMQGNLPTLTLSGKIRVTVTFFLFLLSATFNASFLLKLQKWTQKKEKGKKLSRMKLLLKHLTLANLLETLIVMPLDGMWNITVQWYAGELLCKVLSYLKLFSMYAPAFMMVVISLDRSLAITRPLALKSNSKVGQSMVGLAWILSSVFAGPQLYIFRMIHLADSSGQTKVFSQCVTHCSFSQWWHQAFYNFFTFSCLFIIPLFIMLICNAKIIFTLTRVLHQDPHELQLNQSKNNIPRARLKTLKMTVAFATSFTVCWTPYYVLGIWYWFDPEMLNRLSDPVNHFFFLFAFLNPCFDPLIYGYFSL
Assay: cell-based or functional assay

B1: EP-100 (KFAKFAKKFAKFAKKFAKQHWSYGLRPG) (peptide)
peptide: KFAKFAKKFAKFAKKFAKQHWSYGLRPG
cytotoxicity IC50, MTT assay, 24 h, AN3-CA human endometrial cancer cells: 3.3 µM | cytotoxicity IC50, MTT assay, 24 h, LNCaP prostate cancer cells: 1.5 µM | cytotoxicity IC50, MTT assay, 24 h, MDA-MB-231 human breast cancer cells: 5.5 µM | cytotoxicity IC50, MTT assay, 24 h, MDA-MB-435S breast cancer cells: 0.8 µM | cytotoxicity IC50, MTT assay, 24 h, OVCAR-3 ovarian cancer cells: 3 µM | cytotoxicity IC50, MTT assay, 24 h, PC-3 prostate cancer cells: 5.5 µM
